According to patent US20060257904, “Agglomeration protein cascades, compositions and methods regarding the same” (Q-RNA, Inc., published 2006):

Legend:
[1] = target: T1, hrPrP23-231 (pEHPrP23-231) (Homo sapiens, UniProt P04156 P04156:23-231); assay: EMSA; details: tags: untagged; E. coli BL21(DE3) pLysS; label: 32P internal
[2] = target: hrPrP90-231 (C-terminal fragment) (Homo sapiens, UniProt P04156 P04156:90-231); assay: filter; details: tags: GST fusion removed by thrombin; label: 32P internal
[3] = target: hrPrP23-144 (N-terminal fragment) (Homo sapiens, UniProt P04156 P04156:23-144); assay: filter; 20 nM protein, Buffer B plus tRNA; details: tags: GST fusion removed by thrombin; label: 32P internal
Tau23 (0N3R) = Tau23 (0N3R) (UniProt P10636-2 P10636-2:1-352); assay: EMSA; 125 ng RNA, 1 ug Tau, protection buffer pH 7.4; details: tags: 6-His; label: 32P internal
Tau441 (2N4R) = Tau441 (2N4R) (UniProt P10636-8 P10636-8:1-441); assay: EMSA; 125 ng RNA, 1 ug Tau; affinity differs from Tau23; details: tags: no His tag; rPeptide; label: 32P internal
lysozyme = lysozyme (UniProt P00698 P00698:19-147); assay: filter; background; 20 nM protein, 2 nM RNA, 10 ng/ul tRNA; details: label: 32P internal
BSA = BSA (UniProt P02769 P02769:25-607); assay: as above; details: tags: Ambion; label: 32P internal
[4] = target: T1, hrPrP23-231 (pEHPrP23-231); assay: EMSA; 55 nM hrPrP, 10% BCS plus tRNA, urea gel; details: tags: untagged; E. coli BL21(DE3) pLysS; label: 32P internal

Row | Binder | binding result [1] | binding result [2] | binding result [3] | binding result (Tau23 (0N3R)) | binding result (Tau441 (2N4R)) | binding result (lysozyme) | binding result (BSA) | binding result [4]
1 | RQ11+12 (ssRNA) RNA: GGGGUUUCCAACCGGAAUUUGAGGGAUGCCUAGGCAUCCCCCGUGCGUCCCUUUACGAGGGAUUGUCGACUCUAGUCGACGUCUGGGCGAAAAAUGUACGAGAGGACCUUUUCGGUACAGACGGUACCUGAGGGUAUGCCUAGGCAUCCCCCGCGCCGGUUUCGGACCUCCAGUGCGUGUUACCGCACUGUCGACCC | binds | no binding | binds | binds | binds | no binding | no binding | 
2 | MNV:AP1 (PrP-Amp) (ssRNA) RNA: GGGUUCAUAGCCUAUUCGGCUUCGCGCAUGGGAAUUUGAGGGACGAUGGGGAAGUGGGAGCGCGUUUUAAAGGACCUUUUUCCCUCGCGUAGCUAGCUACGCGAGGUGACCCCCCGAAGGGGGGUGCCCC |  |  |  |  |  |  |  | binds
